From publication PMC6831827, “Structural characterization of the RH1-LZI tandem of JIP3/4 highlights RH1 domains as a cytoskeletal motor-binding motif” (Scientific Reports, 2019)

B1: LZI fragment of JIP3 (residues 71-187) (domain or fragment, mouse, UniProt Q9ESN9-1 71-187, looked up)
chain: SENQEHEVELELLREDNEQLLTQYEREKALRKQAEEKFIEFEDALEQEKKELQIQVEHYEFQTRQLELKAKNYADQISRLEERESEMKKEYNALHQRHTEMIQTYVEHIERSKMQQV
modifications: labelled with Monolith NT.115 Protein Labelling Kit BLUE NHS in the SV-FDS experiments only
notes: also called JIP3-LZI; LZ1 fragment; not shown: His-thioredoxin, N-terminal, cleaved
B2: RH1-LZI fragment of JIP3 (residues 22-187) (domain or fragment, mouse)
chain: GSHGSVMSERVSGLAGSIYREFERLIHCYDEEVVKELMPLVVNVLENLDSVLSENQEHEVELELLREDNEQLLTQYEREKALRKQAEEKFIEFEDALEQEKKELQIQVEHYEFQTRQLELKAKNYADQISRLEERESEMKKEYNALHQRHTEMIQTYVEHIERSKMQQV
modifications: labelled with Monolith NT.115 Protein Labelling Kit BLUE NHS in the SV-FDS experiments only
notes: Gly-Ser-His residues remaining after the thrombin cleavage; The construct is mouse JIP3; Results and modelling speak of human JIP3 (NP_055948.2); also called JIP3-RH1-LZI; RH1-LZI tandem of JIP3; not shown: His-thioredoxin, N-terminal, cleaved
B3: RH1-lz3 fragment of JIP3 (residues 22-100) (domain or fragment, mouse, UniProt Q9ESN9-1 22-100, looked up)
chain: GSVMSERVSGLAGSIYREFERLIHCYDEEVVKELMPLVVNVLENLDSVLSENQEHEVELELLREDNEQLLTQYEREKAL
modifications: labelled with Protein Labeling Kit Blue-NHS in the MST experiment only
notes: cloned, expressed and purified similarly as the other JIP3 fragments, which are of mouse JIP3 NP_038959.2; also called JIP3-RH1-lz3; JIP3-RH1-Lz3; source: E. coli Rosetta, purified similarly as the other JIP3/4 fragments; not shown: His-thioredoxin, N-terminal, cleaved

Columns and labels:
[1] = molecular target: RILPL2 RH1-cc (Homo sapiens) (UniProt Q969X0); experiment: ITC; conditions: cited from earlier work
RILPL2 RH1-cc (Homo sapiens), sequence (Q969X0 1-97): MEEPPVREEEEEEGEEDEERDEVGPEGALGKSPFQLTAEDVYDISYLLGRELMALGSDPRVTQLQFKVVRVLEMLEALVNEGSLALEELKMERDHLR

[2] = molecular target: the molecule itself; experiment: AUC; sedimentation velocity with fluorescence detection (SV-FDS), 20 °C, 50,000 rpm; dilution series of Blue-NHS-labelled fragment (RH1-LZI 460 nM to 1.1 nM; LZI 770 nM to 2.4 nM; above 60 nM mixed with unlabelled protein); dimer to monomers
[3] = molecular target: the molecule itself; experiment: SEC-MALS; Superdex 200 10/300 GL increase, 20 mM Hepes pH 7.5, 200 mM NaCl, 0.5 ml/min; oligomeric state of the fragment
[4] = molecular target: T1, human myosin 5a globular tail domain (GTD; residues 1463-1855) (human, UniProt Q9Y4I1 1463-1855); experiment: AUC; sedimentation velocity, absorbance at 280 nm, 20 °C, 42000 rpm; 20 mM Hepes pH 7.5, 150 mM NaCl, 2 mM MgCl2, 1 mM TCEP; mixtures 22.5 uM JIP3-RH1-LZI + 7.5 uM myo5a-GTD and 7.5 uM JIP3-RH1-LZI + 22.5 uM myo5a-GTD; conditions: both partners purified
T1 construct: myosin 5a (myo5a), human, globular tail domain, residues 1463-1855; pProEx HTB vector with N-terminal 6x Histidine tag and a rTEV cleavage site; the methods describe no cleavage step; also called myo5a-GTD; myo5A-GTD; source: E. coli Rosetta, purified (His-Trap, Superdex 75 gel filtration)
T1 sequence (Q9Y4I1 1463-1855): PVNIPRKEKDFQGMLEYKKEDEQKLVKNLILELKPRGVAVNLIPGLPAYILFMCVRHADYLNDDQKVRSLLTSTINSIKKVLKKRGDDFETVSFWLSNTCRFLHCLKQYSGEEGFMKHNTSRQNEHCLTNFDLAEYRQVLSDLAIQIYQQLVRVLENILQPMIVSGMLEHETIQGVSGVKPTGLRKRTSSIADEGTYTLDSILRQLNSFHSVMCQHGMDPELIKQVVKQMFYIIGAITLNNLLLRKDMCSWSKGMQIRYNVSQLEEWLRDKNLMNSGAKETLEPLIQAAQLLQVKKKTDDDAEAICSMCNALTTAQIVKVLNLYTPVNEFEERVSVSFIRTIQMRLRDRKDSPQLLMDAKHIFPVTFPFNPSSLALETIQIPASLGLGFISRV

[5] = molecular target: T1, human myosin 5a globular tail domain …; experiment: MST; 25 nM Blue-NHS-labelled JIP3 fragment, myo5a-GTD titrated (16 1:1 dilutions); 20 mM hepes pH 7.5, 150 mM NaCl, 2 mM MgCl2, 0.5 mM TCEP, 0.05% tween; 25 °C; three independent replicates; conditions: both partners purified

Molecule | Kd [1] [nM] | Kd [2] [nM] | stoichiometry N [3] | binding result [4] | Kd [5] [nM]
myosin Va GTD (from UniProt Q9Y4I1) | 300 | – | – | – | –
B1 | – | 110 | 2 | – | –
B2 | – | < 1 | 2 | binds | –
B3 | – | – | 2 | – | 2200 ± 500
